# Measurements published in US20110301098A1, “TREATMENT FOR INTIMAL HYPERPLASIA AND RELATED CONDITIONS” (priority 2006, published 2011).
# Read-outs that look alike come from different tables or passages of the source. Positions of bridges follow the written chain, without caps; N, C: chain ends. Non-standard residues stand in square brackets, D forms with d. Residues, ends and D or L forms follow the SMILES beside them. *: point of attachment. Hydrocinnamoyl = O=C(CCc1ccccc1)*; dCha = N[C@H](CC1CCCCC1)C(=O)O; Orn = NCCC[C@H](N)C(=O)O
# T1: C5a receptor (Mus musculus, UniProt P30993)
# T1 sequence (P30993 1-351): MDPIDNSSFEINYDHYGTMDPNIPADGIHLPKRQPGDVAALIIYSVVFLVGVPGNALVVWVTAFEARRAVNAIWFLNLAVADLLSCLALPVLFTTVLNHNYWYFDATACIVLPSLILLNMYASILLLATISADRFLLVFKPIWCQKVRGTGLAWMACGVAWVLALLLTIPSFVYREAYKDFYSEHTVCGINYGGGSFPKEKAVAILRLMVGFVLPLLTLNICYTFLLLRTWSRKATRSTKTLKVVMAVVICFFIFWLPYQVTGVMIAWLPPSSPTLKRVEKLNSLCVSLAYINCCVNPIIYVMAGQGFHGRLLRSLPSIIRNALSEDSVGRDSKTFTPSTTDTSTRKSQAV
# B1: C5a: E. coli-derived recombinant mouse C5a (HyCult Biotechnology) (protein, UniProt P06684 679-755, looked up)
# C5a anaphylatoxin: NLHLLRQKIEEQAAKYKHSVPKKCCYDGARVNFYETCEERVARVTIGPLCIRAFNECCTIANKIRKESPHKPVQLGR
# modifications: C5a anaphylatoxin
# Assays:
# C5a receptor [1] = molecular target: T1, C5a receptor; experiment: C5a receptor antagonist treatment in the ApoE-/- mouse vein graft model
# Description: (§1) Male ApoE^−/− mice, aged between 12 and 16 weeks, were used for all experiments. Mice were fed a standard chow diet, and received water and food ad libitum. Before surgery, mice were anesthetized by an intra-peritoneal injection with Midazolam (5 mg/kg, Roche), Medetomidine (0.5 mg/kg, Orion) and Fentanyl (0.05 mg/kg, Janssen). Cholesterol levels in serum were determined at the time of sacrifice.
# (§2) Briefly, caval veins were harvested from genetically identical donor mice, and were preserved before implantation at 4° C. in 0.9% NaCl containing 100 U/ml of heparin. In the graft recipient, the right carotid artery was dissected and cut in the middle. A polyethylene cuff was placed at both ends of the artery. The artery was everted around the cuff and ligated with a silk 8.0 suture. The caval vein was sleeved over the two cuffs and ligated. Successful engraftment was confirmed by the presence of pulsations and turbulent blood flow within the vein graft. The whole procedure usually takes about 30 minutes.
# (§3) Cross-sections of vein grafts were stained with hematoxylin-phloxine-saffron, using conventional methods. The intimal hyperplasia surface of the thickened vein grafts was measured using image analysis software (Qwin, Leica). For each vein graft, six equally spaced cross-sections were used to determine the degree of vessel wall thickening.
# (§4) To identify macrophages and macrophage-derived foam cells, immunohistochemistry was performed using AIA31240 primary antibodies against mouse macrophages (1:3000, Accurate Chemical). The contribution of macrophages and foam cells to the intimal hyperplasia was measured by computer-assisted analysis (Qwin, Leica) as the area stained with antibody AIA31240, and expressed as a percentage of the total intimal hyperplasia surface.
# (§5) In order to inhibit C5a function, 21 mice were randomly divided in to three groups, and were treated with the cyclic peptide C5a antagonists AcF-[OP-(D-Cha)WR] (AcF) or hydrocinnamate-[OP-(D-Cha)WR] (HC). […]
# C5a receptor [2] = molecular target: T1, C5a receptor; conditions: in vivo
# Description: as §1, §2, §3, §4, §5
# PDGF receptor = conditions: pretreatment of the vein grafts; cited from earlier work
# vein grafts = experiment: Recombinant C5a applied to vein grafts in hypercholesterolaemic ApoE-/- mice; assay type: in vivo, mouse; conditions: for intimal hyperplasia surface: control 0.24±0.02; for macrophage/foam cell content of intimal hyperplasia: control 17±2%
# Description: 153: 1301-1310. […] The whole procedure usually takes about 30 minutes.
# To examine the involvement of C5a in the development of vein graft thickening, we applied recombinant C5a in two concentrations (0.5 μg and 5 μg, dissolved in 100 μl 20% Pluronic gel, n=7 per group,) directly to the vein graft at the time of surgery. In the control group 100 μl of 20% Pluronic gel without C5a was applied.
# Twenty-one mice were randomly divided into three groups. In the treatment groups, either 0.5 μg or 5 μg of E. coli-derived recombinant mouse C5a (HyCult Biotechnology) was dissolved in 0.1 ml of 20% Pluronic gel, and applied around the venous interposition at the time of surgery. In the control group 0.1 ml of 20% Pluronic gel was applied without C5a. Mice were sacrificed after 28 days.
molecule,measurement,setting,value
"CC(=O)N[C@@H](Cc1ccccc1)C(=O)N[C@H]1CCCNC(=O)[C@H](CCCNC(=N)N)NC(=O)[C@H](Cc2c[nH]c3ccccc23)NC(=O)[C@@H](CC2CCCCC2)NC(=O)[C@@H]2CCCN2C1=O [AcF, AcF-[OP-(D-Cha)WR]]",decrease in vein graft thickening compared to control mice,"C5a receptor [1]; 3 mg/kg/day s.c., 28 days after surgery",53%
same,body weight or serum cholesterol,C5a receptor [1]; between the different treatment groups,No differences
"N=C(N)NCCC[C@@H]1NC(=O)[C@H](Cc2c[nH]c3ccccc23)NC(=O)[C@@H](CC2CCCCC2)NC(=O)[C@@H]2CCCN2C(=O)[C@@H](NC(=O)CCc2ccccc2)CCCNC1=O [HC, hydrocinnamate-[OP-(D-Cha)WR]] (Hydrocinnamoyl-[Orn]P[dCha]WR; lactam 1-C)",body weight or serum cholesterol,C5a receptor [2],No differences
Cc1ccc(C(=O)Nc2ccc(S(=O)(=O)O)c3cc(S(=O)(=O)O)cc(S(=O)(=O)O)c23)cc1NC(=O)c1cccc(NC(=O)Nc2cccc(C(=O)Nc3cc(C(=O)Nc4ccc(S(=O)(=O)O)c5cc(S(=O)(=O)O)cc(S(=O)(=O)O)c45)ccc3C)c2)c1 [Suramin],neointimal hyperplasia,PDGF receptor,significant reduction
B1,intimal hyperplasia surface,"vein grafts; 0.5 μg C5a in 20% Pluronic gel applied to vein graft at surgery, 28 days",0.29±0.03 mm^2
same,macrophage/foam cell content of intimal hyperplasia,"vein grafts; 0.5 μg C5a, 28 days",22±3%
same,body weight and serum cholesterol,vein grafts; 0.5 μg and 5 μg C5a vs control,did not differ
same,luminal area,"vein grafts; 0.5 μg and 5 μg C5a vs control, 28 days",No significant differences
same,intimal hyperplasia surface,"vein grafts; 5 μg C5a in 20% Pluronic gel applied to vein graft at surgery, 28 days",0.41±0.04 mm^2
same,macrophage/foam cell content of intimal hyperplasia,"vein grafts; 5 μg C5a, 28 days",33±2%
